Data reported in publication PMC2756588.

T1: Boi2, P39969
T1 sequence (P39969 32-116, looked up): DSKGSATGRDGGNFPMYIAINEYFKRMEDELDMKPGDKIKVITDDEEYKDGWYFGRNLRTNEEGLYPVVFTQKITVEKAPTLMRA

T2: Hse1, P38753
T2 sequence (P38753 208-285, looked up): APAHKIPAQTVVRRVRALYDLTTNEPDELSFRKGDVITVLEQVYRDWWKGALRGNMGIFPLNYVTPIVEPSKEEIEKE

T3: Bzz1-2, P38822
T3 sequence (P38822 568-633, looked up): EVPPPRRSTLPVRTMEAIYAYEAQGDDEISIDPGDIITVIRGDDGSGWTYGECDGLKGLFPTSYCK

T4: Cyk3, Q07533
T4 sequence (Q07533 1-83, looked up): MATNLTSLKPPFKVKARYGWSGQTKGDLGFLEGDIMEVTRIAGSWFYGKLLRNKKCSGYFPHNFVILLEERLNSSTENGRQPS

T5: Nbp2, Q12163
T5 sequence (Q12163 103-180, looked up): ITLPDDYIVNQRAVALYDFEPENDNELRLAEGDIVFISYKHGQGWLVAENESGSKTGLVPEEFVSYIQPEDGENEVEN

T6: Boi1, P38041
T6 sequence (P38041 1-86, looked up): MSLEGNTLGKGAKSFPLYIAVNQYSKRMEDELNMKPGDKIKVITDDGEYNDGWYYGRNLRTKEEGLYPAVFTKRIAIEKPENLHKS

T7: Cdc25, P04821
T7 sequence (P04821 50-136, looked up): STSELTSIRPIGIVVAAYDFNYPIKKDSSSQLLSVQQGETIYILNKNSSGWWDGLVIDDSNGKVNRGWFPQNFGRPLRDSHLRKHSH

T8: Lsb3, P43603
T8 sequence (P43603 385-451, looked up): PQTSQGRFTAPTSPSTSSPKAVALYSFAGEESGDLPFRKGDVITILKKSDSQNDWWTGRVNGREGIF

T9: Sla1-2, P32790
T9 sequence (P32790 60-140, looked up): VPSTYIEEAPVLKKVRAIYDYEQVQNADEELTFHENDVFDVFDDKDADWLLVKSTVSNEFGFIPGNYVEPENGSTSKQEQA

T10: Pin3, Q06449
T10 sequence (Q06449 53-122, looked up): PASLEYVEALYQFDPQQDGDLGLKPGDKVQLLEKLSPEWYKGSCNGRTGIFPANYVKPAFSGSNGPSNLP

T11: Bzz1-1, P38822
T11 sequence (P38822 478-572, looked up): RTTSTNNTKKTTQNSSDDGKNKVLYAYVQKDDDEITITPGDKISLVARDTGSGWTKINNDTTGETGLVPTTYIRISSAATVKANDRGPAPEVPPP

T12: Hof1, Q05080
T12 sequence (Q05080 590-669, looked up): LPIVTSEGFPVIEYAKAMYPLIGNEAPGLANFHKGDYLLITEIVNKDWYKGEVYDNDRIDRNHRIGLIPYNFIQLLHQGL

T13: Sla1-3, P32790
T13 sequence (P32790 344-424, looked up): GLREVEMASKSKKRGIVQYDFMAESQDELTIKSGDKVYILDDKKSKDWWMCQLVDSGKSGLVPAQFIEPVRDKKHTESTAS

T14: Abp1, P15891
T14 sequence (P15891 535-592, looked up): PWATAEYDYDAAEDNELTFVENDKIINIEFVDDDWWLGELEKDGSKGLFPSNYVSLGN

T15: Myo5, Q04439
T15 sequence (Q04439 1072-1160, looked up): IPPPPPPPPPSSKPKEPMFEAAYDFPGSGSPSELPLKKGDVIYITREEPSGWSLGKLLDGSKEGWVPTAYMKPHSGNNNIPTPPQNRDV

T16: Bbc1, P47068
T16 sequence (P47068 1-78, looked up): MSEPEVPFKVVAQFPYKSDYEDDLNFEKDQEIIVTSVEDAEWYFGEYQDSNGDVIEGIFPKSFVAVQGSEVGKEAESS

T17: Lsb4, P32793
T17 sequence (P32793 402-468, looked up): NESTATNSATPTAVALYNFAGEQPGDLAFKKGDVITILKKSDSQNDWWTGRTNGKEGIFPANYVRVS

T18: Fus1, P11710
T18 sequence (P11710 432-512, looked up): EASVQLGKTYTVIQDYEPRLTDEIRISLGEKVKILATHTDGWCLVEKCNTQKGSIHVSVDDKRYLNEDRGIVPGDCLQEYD

T19: Bud14, P27637
T19 sequence (P27637 247-328, looked up): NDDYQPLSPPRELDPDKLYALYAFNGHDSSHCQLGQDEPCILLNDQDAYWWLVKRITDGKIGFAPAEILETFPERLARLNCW

T20: Pex13, P80667
T20 sequence (P80667 295-386, looked up): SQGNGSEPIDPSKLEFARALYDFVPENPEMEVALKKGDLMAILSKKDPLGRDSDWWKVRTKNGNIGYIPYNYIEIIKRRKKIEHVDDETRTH

T21: Lsb1, P53281
T21 sequence (P53281 45-122, looked up): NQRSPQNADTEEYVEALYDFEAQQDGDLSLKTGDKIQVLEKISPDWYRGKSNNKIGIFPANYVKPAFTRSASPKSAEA


Assays:
Assay in all cases: SPOT array
Boi2, P39969 = molecular target: T1, Boi2, P39969; conditions: median of control spots 1161
Hse1, P38753 = molecular target: T2, Hse1, P38753; conditions: median of control spots 1727
Bzz1-2, P38822 = molecular target: T3, Bzz1-2, P38822; conditions: median of control spots 4538
Cyk3, Q07533 = molecular target: T4, Cyk3, Q07533; conditions: median of control spots 1451
Myo3, P36006 = conditions: median of control spots 468
GST = conditions: median of control spots 978
Nbp2, Q12163 = molecular target: T5, Nbp2, Q12163; conditions: median of control spots 357
Bem1-2, P29366 = conditions: median of control spots 4347
Chain of Bem1-2, P29366 (P29366 139-227): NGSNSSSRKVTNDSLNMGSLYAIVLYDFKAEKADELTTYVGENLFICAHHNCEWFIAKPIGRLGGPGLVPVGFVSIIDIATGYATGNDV

Boi1, P38041 = molecular target: T6, Boi1, P38041; conditions: median of control spots 1162
Rvs167, P39743 = conditions: median of control spots 2707
Chain of Rvs167, P39743 (P39743 419-482): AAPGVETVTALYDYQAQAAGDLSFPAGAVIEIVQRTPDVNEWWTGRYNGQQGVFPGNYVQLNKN

Sho1, P40073 = conditions: median of control spots 1148
Chain of Sho1, P40073 (P40073 287-367): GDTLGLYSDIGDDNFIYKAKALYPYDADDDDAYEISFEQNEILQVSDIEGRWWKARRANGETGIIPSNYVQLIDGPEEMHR

Cdc25, P04821 = molecular target: T7, Cdc25, P04821; conditions: median of control spots 969
Lsb3, P43603 = molecular target: T8, Lsb3, P43603; conditions: median of control spots 406
Sla1-2, P32790 = molecular target: T9, Sla1-2, P32790; conditions: median of control spots 712
Pin3, Q06449 = molecular target: T10, Pin3, Q06449; conditions: median of control spots 2171
Bzz1-1, P38822 = molecular target: T11, Bzz1-1, P38822; conditions: median of control spots 4446
Hof1, Q05080 = molecular target: T12, Hof1, Q05080; conditions: median of control spots 4086
Bem1-1, P29366 = conditions: median of control spots 4282
Chain of Bem1-1, P29366 (P29366 55-141): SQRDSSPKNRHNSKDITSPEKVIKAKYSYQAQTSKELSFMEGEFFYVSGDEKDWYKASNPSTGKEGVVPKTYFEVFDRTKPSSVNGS

Sla1-3, P32790 = molecular target: T13, Sla1-3, P32790; conditions: median of control spots 5475
Abp1, P15891 = molecular target: T14, Abp1, P15891; conditions: median of control spots 935
Myo5, Q04439 = molecular target: T15, Myo5, Q04439; conditions: median of control spots 471
Bbc1, P47068 = molecular target: T16, Bbc1, P47068; conditions: median of control spots 796
Lsb4, P32793 = molecular target: T17, Lsb4, P32793; conditions: median of control spots 397
Fus1, P11710 = molecular target: T18, Fus1, P11710; conditions: median of control spots 1200
Bud14, P27637 = molecular target: T19, Bud14, P27637; conditions: median of control spots 956
Pex13, P80667 = molecular target: T20, Pex13, P80667; conditions: median of control spots 1341
Lsb1, P53281 = molecular target: T21, Lsb1, P53281; conditions: median of control spots 388

Binder | SPOT intensity (Boi2, P39969) | SPOT intensity (Hse1, P38753) | SPOT intensity (Bzz1-2, P38822) | SPOT intensity (Cyk3, Q07533) | SPOT intensity (Myo3, P36006) | SPOT intensity (GST) | SPOT intensity (Nbp2, Q12163) | SPOT intensity (Bem1-2, P29366) | SPOT intensity (Boi1, P38041) | SPOT intensity (Rvs167, P39743) | SPOT intensity (Sho1, P40073) | SPOT intensity (Cdc25, P04821) | SPOT intensity (Lsb3, P43603) | SPOT intensity (Sla1-2, P32790) | SPOT intensity (Pin3, Q06449) | SPOT intensity (Bzz1-1, P38822) | SPOT intensity (Hof1, Q05080) | SPOT intensity (Bem1-1, P29366) | SPOT intensity (Sla1-3, P32790) | SPOT intensity (Abp1, P15891) | other results
RVTRKRPREPKSTND | 2 | 12 | 11 | 4 | 19 | 2 | 40 | 0 | 10 | 0 | 173 | 28 | 5 | 2 | 3 | 0 | 3 | 2 | 47 | 167 | SPOT intensity (Myo5, Q04439): 3; SPOT intensity (Bbc1, P47068): 217; SPOT intensity (Lsb4, P32793): 10; SPOT intensity (Fus1, P11710): 34; SPOT intensity (Bud14, P27637): 9; SPOT intensity (Pex13, P80667): 0; SPOT intensity (Lsb1, P53281): 9
KIRRSSLMIPNPQQF | 1 | 1 | 0 | 2 | 35 | 3 | 0 | 3 | 2 | 0 | 47 | 12 | 14 | 4 | 142 | 1 | 0 | 0 | 9 | 105 | SPOT intensity (Myo5, Q04439): 11; SPOT intensity (Bbc1, P47068): 13; SPOT intensity (Lsb4, P32793): 3; SPOT intensity (Fus1, P11710): 21; SPOT intensity (Bud14, P27637): 5; SPOT intensity (Pex13, P80667): 30; SPOT intensity (Lsb1, P53281): 12
IKTRSVPKIPSIESV | 1 | 0 | 2 | 0 | 5 | 0 | 12 | 0 | 1 | 1340 | 4 | 2 | 257 | 1 | 15 | 2 | 38 | 3 | 6 | 9 | SPOT intensity (Myo5, Q04439): 0; SPOT intensity (Bbc1, P47068): 10; SPOT intensity (Lsb4, P32793): 166; SPOT intensity (Fus1, P11710): 0; SPOT intensity (Bud14, P27637): 2; SPOT intensity (Pex13, P80667): 32; SPOT intensity (Lsb1, P53281): 266

More lines, main results first:

SPOT intensity (Boi2, P39969) | SPOT intensity (Hse1, P38753) | SPOT intensity (Bzz1-2, P38822) | SPOT intensity (Cyk3, Q07533) | SPOT intensity (Myo3, P36006) | SPOT intensity (GST) | SPOT intensity (Nbp2, Q12163) | SPOT intensity (Bem1-2, P29366) | SPOT intensity (Boi1, P38041) | SPOT intensity (Rvs167, P39743) | SPOT intensity (Sho1, P40073) | SPOT intensity (Cdc25, P04821) | SPOT intensity (Lsb3, P43603) | SPOT intensity (Sla1-2, P32790) | SPOT intensity (Pin3, Q06449) | SPOT intensity (Bzz1-1, P38822) | SPOT intensity (Hof1, Q05080) | SPOT intensity (Bem1-1, P29366) | SPOT intensity (Sla1-3, P32790) | SPOT intensity (Abp1, P15891) | Binder | other results
0 | 1 | 0 | 0 | 0 | 0 | 0 | 3 | 1 | 0 | 1 | 1 | 0 | 0 | 32 | 0 | 3 | 0 | 18 | 0 | WTQRRGPLVVYAEDN | SPOT intensity (Myo5, Q04439): 0; SPOT intensity (Bbc1, P47068): 0; SPOT intensity (Lsb4, P32793): 1; SPOT intensity (Fus1, P11710): 2; SPOT intensity (Bud14, P27637): 0; SPOT intensity (Pex13, P80667): 10; SPOT intensity (Lsb1, P53281): 0
0 | 76 | 522 | 2 | 35 | 0 | 219 | 800 | 3 | 4 | 90 | 43 | 18 | 0 | 26 | 52 | 6 | 0 | 155 | 259 | FIRKRAPTPPAPSRS | SPOT intensity (Myo5, Q04439): 4; SPOT intensity (Bbc1, P47068): 68; SPOT intensity (Lsb4, P32793): 26; SPOT intensity (Fus1, P11710): 13; SPOT intensity (Bud14, P27637): 10; SPOT intensity (Pex13, P80667): 27; SPOT intensity (Lsb1, P53281): 1190
1 | 0 | 0 | 2 | 3 | 0 | 0 | 0 | 3 | 2 | 35 | 20 | 0 | 0 | 2 | 0 | 0 | 0 | 0 | 23 | HVRRSILALPLGVLL | SPOT intensity (Myo5, Q04439): 1; SPOT intensity (Bbc1, P47068): 1; SPOT intensity (Lsb4, P32793): 4; SPOT intensity (Fus1, P11710): 16; SPOT intensity (Bud14, P27637): 14; SPOT intensity (Pex13, P80667): 3; SPOT intensity (Lsb1, P53281): 47
